The source of these data is publication PMC4784741.

Usually stoichiometry N stands for the number of molecules, sites or subunits per partner or assembly.

Experiment [1] addresses recombinant human cathepsin L (human).
In experiment [2] the target is recombinant p31 Ii without cytoplasmic and transmembrane domain (and no inhibitory fragment) (human). The experiment in a line: SDS-PAGE with Western blot; recombinant Ii isoforms separated by SDS-PAGE, blotted and labelled with anti-Ii (LN2) mAb; minor bands above the monomers.
Experiment [3] concerns the target recombinant p41 Ii without cytoplasmic and transmembrane domain (with inhibitory p41 fragment included) (human). The description is as above.

recombinant p41 Ii without cytoplasmic and transmembrane domain (with inhibitory p41 fragment included) (domain or fragment), sequence (P04233 73-296): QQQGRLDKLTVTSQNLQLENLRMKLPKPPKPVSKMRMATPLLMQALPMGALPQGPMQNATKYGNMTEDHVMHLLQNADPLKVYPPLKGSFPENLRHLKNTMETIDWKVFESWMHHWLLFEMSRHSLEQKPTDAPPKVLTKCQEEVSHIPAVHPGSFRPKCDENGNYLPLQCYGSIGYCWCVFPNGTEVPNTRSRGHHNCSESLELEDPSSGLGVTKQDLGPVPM

For “p41 fragment of invariant chain p41 Ii (domain or fragment)”, the active site titration: degradation of Z-Phe-Arg-AMC by cathepsin L (2.5 nM) with p41 fragment 0.5 nM to 3 nM; molar ratio at which the activity is abolished (molar ratio p41 fragment/cathepsin L) in experiment [1] was found to be 1.

In the case of “recombinant p31 Ii without cytoplasmic and transmembrane domain (and no inhibitory fragment) (domain or fragment)”, the stoichiometry N in experiment [2] was 2. On to “recombinant p41 Ii without cytoplasmic and transmembrane domain (with inhibitory p41 fragment included) (domain or fragment)”, for which the stoichiometry N in experiment [3] is 2.
